Consider one protein from publication PMC7340257, “Crystal structure and interaction studies of human DHTKD1 provide insight into a mitochondrial megacomplex in lysine catabolism” (IUCrJ, 2020).

This series concerns the molecule itself. The experiment in a line: SEC; analytical gel filtration of hDHTKD1_(45–919) WT and p.R715C alone; 20 mM HEPES pH 7.5, 150 mM NaCl, 0.5 mM TCEP. (Size exclusion chromatography separates by hydrodynamic size, large species first.)

B1: human DHTKD1 residues 45-919, p.R715C variant, His-tagged (enzyme, UniProt Q96HY7 45-919, looked up)
chain: GALERPPVDHGLARLVTVYCEHGHKAAKINPLFTGQALLENVPEIQALVQTLQGPFHTAGLLNMGKEEASLEEVLVYLNQIYCGQISIETSQLQSQDEKDWFAKRFEELQKETFTTEERKHLSKLMLESQEFDHFLATKFSTVKRYGGEGAESMMGFFHELLKMSAYSGITDVIIGMPHRGRLNLLTGLLQFPPELMFRKMRGLSEFPENFSATGDVLSHLTSSVDLYFGAHHPLHVTMLPNPSHLEAVNPVAVGKTRGRQQSRQDGDYSPDNSAQPGDRVICLQVHGDASFCGQGIVPETFTLSNLPHFRIGGSVHLIVNNQLGYTTPAERGRSSLYCSDIGKLVGCAIIHVNGDSPEEVVRATRLAFEYQRQFRKDVIIDLLCYRQWGHNELDEPFYTNPIMYKIIRARKSIPDTYAEHLIAGGLMTQEEVSEIKSSYYAKLNDHLNNMAHYRPPALNLQAHWQGLAQPEAQITTWSTGVPLDLLRFVGMKSVEVPRELQMHSHLLKTHVQSRMEKMMDGIKLDWATAEALALGSLLAQGFNVRLSGQDVGRGTFSQRHAIVVCQETDDTYIPLNHMDPNQKGFLEVSNSPLSEEAVLGFEYGMSIESPKLLPLWEAQFGDFFNGAQIIFDTFISGGEAKWLLQSGIVILLPHGYDGAGPDHSSCRIECFLQMCDSAEEGVDGDTVNMFVVHPTTPAQYFHLLRRQMVRNFRKPLIVASPKMLLRLPAAVSTLQEMAPGTTFNPVIGDSSVDPKKVKTLVFCSGKHFYSLVKQRESLGAKKHDFAIIRVEELCPFPLDSLQQEMSKYKHVKDHIWSQEEPQNMGPWSFVSPRFEKQLACKLRLVGRPPLPVPAVGIGTVHLHQHEDILAKTFA
notes: PDB 6sy1 is the wild-type parent of the same limits; source: E. coli BL21(DE3)R3-Rosetta, purified
As to B1, the binding result is recorded as “binds”.
